Measured values taken from patent US20160159879A1 (UNIVERSITY OF NORTH CAROLINA AT CHAPEL HILL, published 2016).
Ends that are not written are not given here. * marks the point of attachment. Biotin = O=C1N[C@H]2[C@H](CS[C@H]2CCCCC(=O)*)N1

Columns and labels:
[1] = target: αβγENaC expressed in Xenopus laevis oocytes (rat) (UniProt P37089); test: cell-based or functional assay
[2] = target: ENaC endogenous to primary human bronchial epithelial cultures (human) (UniProt P37088); test: cell-based or functional assay
[3] = tested on: T1, Recombinant V5/6His-tagged SPLUNC1 purified from HEK293 media
T1 sequence: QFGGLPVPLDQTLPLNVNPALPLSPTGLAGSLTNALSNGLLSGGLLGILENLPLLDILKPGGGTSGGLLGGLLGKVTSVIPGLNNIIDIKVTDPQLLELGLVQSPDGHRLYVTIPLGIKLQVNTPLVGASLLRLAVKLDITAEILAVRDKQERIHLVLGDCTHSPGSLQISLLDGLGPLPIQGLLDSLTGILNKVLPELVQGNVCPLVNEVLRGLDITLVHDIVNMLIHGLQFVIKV

[4] = target: yfp-tagged αENaC stably expressed in JME nasal epithelial cells; test: fluorescence binding isotherm on polarized JME cells expressing yfp-αENaC, 30 min, empty-vector cells as non-specific binding, Hill fit
[5] = target: T2, Human αENaC subunit, HA (N-terminus) and V5 (C-terminus) tagged, expressed alone in HEK293T cells (human, UniProt P37088 1-669); test: pull-down with biotinylated S18 of subunits expressed individually in HEK cells, Western blot
T2 sequence (looked up): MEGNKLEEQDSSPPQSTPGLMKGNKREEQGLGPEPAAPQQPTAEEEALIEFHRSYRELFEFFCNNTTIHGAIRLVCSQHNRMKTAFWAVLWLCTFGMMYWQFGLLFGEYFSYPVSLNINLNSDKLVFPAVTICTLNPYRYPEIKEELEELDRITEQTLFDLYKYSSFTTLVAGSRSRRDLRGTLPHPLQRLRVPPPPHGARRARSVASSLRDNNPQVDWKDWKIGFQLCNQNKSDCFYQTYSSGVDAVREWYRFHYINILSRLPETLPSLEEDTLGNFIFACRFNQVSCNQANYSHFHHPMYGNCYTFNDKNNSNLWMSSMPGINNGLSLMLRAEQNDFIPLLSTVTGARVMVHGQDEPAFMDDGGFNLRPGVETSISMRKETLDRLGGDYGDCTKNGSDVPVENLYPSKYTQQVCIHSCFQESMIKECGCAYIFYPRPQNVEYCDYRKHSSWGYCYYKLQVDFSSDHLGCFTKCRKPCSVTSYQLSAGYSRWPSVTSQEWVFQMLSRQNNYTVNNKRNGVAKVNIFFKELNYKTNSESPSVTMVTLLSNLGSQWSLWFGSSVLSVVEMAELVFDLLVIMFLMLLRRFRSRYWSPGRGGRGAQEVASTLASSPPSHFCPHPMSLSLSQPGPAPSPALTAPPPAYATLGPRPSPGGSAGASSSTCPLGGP

[6] = target: T3, Human γENaC subunit, HA (N-terminus) and V5 (C-terminus) tagged, expressed alone in HEK293T cells (human, UniProt P51170 1-649); test: as above
T3 sequence (looked up): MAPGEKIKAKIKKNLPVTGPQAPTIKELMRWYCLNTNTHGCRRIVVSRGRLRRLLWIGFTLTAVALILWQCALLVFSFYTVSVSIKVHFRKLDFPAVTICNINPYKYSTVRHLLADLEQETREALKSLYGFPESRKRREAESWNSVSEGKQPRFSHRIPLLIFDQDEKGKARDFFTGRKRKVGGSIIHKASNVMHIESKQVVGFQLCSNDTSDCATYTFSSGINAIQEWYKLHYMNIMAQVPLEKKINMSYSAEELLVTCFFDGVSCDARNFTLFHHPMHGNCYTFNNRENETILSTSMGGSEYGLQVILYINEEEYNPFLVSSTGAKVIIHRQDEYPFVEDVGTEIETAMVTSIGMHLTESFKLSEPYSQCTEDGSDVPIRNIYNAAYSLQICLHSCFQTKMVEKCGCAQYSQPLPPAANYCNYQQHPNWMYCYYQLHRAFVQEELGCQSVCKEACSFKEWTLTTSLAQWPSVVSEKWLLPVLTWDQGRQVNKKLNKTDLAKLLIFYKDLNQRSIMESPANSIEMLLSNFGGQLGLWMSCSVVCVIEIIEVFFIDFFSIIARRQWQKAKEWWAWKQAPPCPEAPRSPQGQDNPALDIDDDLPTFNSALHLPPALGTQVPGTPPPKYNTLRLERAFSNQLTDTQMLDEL

[7] = target: T4, Human βENaC subunit, HA (N-terminus) and V5 (C-terminus) tagged, expressed in HEK293T cells (human, UniProt P51168 1-640, glycosylated (EndoH and tunicamycin experiments)); test: peptide pull-down on neutravidin beads, Western blot with anti-V5
T4 sequence (looked up): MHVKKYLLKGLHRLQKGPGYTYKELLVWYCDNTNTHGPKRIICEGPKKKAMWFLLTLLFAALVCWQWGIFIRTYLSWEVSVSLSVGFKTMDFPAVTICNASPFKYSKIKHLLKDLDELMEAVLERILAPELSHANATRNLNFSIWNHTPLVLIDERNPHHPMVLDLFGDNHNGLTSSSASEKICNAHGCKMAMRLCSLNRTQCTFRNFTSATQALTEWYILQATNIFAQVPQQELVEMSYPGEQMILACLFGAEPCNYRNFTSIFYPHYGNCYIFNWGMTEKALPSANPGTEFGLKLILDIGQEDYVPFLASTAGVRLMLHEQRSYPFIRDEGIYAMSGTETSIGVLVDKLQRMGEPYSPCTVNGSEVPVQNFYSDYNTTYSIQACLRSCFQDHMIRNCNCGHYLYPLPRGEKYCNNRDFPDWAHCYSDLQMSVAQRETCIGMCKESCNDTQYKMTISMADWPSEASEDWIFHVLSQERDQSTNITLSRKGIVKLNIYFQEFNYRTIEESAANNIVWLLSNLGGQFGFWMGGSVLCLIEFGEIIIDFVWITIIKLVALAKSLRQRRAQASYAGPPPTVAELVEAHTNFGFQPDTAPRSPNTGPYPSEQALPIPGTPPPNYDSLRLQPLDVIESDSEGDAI

[8] = target: αβγENaC expressed in Xenopus laevis oocytes (rat, UniProt P37089 1-698; P37090 1-638; P37091 1-650); test: cell-based or functional assay
αβγENaC expressed in Xenopus laevis oocytes, sequence (P37089 whole entry, chain 1 of 3): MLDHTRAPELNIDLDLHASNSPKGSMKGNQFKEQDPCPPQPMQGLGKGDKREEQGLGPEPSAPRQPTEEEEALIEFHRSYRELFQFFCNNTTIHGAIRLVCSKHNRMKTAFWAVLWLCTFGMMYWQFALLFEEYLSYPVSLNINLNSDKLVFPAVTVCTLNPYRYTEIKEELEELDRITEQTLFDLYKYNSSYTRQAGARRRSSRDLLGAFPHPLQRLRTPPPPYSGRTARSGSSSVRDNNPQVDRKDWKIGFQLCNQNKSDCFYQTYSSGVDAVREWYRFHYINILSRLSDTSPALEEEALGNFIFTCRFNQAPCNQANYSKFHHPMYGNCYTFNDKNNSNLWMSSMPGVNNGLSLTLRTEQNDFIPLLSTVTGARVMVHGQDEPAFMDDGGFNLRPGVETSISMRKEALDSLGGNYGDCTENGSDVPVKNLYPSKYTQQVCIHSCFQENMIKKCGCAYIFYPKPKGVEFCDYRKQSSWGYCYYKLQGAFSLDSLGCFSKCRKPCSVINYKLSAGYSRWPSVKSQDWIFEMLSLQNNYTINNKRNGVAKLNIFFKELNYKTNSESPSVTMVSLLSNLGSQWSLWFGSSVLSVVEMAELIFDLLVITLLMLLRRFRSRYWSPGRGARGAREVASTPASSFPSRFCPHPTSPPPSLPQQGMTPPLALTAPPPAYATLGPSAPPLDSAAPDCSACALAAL
αβγENaC expressed in Xenopus laevis oocytes, sequence (P37090 whole entry, chain 2 of 3): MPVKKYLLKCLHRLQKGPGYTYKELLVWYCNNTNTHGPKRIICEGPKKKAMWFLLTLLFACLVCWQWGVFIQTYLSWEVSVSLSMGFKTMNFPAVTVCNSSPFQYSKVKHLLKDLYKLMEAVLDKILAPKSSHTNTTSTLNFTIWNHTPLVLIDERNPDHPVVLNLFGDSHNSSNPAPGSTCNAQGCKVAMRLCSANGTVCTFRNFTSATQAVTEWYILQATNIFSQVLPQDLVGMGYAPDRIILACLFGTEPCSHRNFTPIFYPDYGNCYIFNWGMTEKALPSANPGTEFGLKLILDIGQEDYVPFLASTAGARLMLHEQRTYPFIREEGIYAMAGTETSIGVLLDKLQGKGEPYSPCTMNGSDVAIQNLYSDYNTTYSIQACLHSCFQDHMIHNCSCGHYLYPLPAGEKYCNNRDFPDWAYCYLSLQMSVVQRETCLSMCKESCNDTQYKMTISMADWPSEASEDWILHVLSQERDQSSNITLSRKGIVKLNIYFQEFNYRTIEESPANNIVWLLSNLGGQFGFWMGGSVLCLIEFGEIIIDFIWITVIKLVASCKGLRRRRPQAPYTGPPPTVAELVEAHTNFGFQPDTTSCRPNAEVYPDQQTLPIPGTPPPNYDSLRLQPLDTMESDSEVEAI
αβγENaC expressed in Xenopus laevis oocytes, sequence (P37091 whole entry, chain 3 of 3): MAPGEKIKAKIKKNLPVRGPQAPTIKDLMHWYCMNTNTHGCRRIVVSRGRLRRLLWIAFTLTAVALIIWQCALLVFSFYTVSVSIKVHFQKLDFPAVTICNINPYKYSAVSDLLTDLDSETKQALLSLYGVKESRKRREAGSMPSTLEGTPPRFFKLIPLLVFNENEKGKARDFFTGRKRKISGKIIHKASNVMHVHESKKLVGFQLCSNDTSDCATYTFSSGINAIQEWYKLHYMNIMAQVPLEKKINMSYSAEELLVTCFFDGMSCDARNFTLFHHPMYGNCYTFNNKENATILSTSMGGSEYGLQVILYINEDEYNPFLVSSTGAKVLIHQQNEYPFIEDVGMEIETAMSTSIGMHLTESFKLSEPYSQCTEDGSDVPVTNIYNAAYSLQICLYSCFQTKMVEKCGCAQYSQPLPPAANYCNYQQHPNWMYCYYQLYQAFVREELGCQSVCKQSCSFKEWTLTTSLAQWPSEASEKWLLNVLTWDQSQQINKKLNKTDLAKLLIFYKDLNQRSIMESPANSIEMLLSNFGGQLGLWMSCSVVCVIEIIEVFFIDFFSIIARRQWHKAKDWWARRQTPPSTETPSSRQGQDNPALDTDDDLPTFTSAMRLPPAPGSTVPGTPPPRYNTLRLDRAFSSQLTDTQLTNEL

[9] = target: ENaC endogenous to primary human bronchial epithelial cultures (human, UniProt P37088 1-669; P51168 1-640; P51170 1-649); test: cell-based or functional assay

αβγENaC expressed in Xenopus laevis oocytes (rat), sequence (P37089 whole entry, chain 1 of 3): as the sequence (P37089 whole entry, chain 1 of 3) above
αβγENaC expressed in Xenopus laevis oocytes (rat), sequence (P37090 whole entry, chain 2 of 3, further chain): as the sequence (P37090 whole entry, chain 2 of 3) above
αβγENaC expressed in Xenopus laevis oocytes (rat), sequence (P37091 whole entry, chain 3 of 3, further chain): as the sequence (P37091 whole entry, chain 3 of 3) above

Q: With “Recombinant V5/6His-tagged SPLUNC1 purified from HEK293 media (from UniProt Q9NP55 20-256)” as the molecule, how does the decrease in ENaC currents (amiloride-sensitive), two electrode voltage clamp in oocytes [1] read?
A: 70%

Q: And the transepithelial electrical resistance [2]?
A: 33%

Q: How did the “cleavage of the fluorogenic substrate BGAR-MCA by 1.0 or 0.3 U/ml trypsin” value [3] turn out when Trypsin was run?
A: 50 ng/ml rSPLUNC1 had only a modest affect (˜10%) on the ability of either 1.0 or 0.3 U/ml trypsin to cleave a fluorogenic substrate

Q: With “Texas red-labeled recombinant SPLUNC1 (from UniProt Q9NP55 20-256)” as the molecule, how does the Kd [4] read?
A: 0.055 µg/mL

B1: Biotinylated S18 peptide (peptide)
peptide: Biotin-GGLPVPLDQTLPLNVNPA
notes: also called G22-A39
Q: Does B1 bind [5]?
A: no binding

Q: Does B1 bind [6]?
A: no binding

B2: Control peptide ABC (alphabetized G22-A39), biotinylated (peptide)
peptide: Biotin-ADGGLLLLNNPPPPQTVV
notes: also called ADG
Q: Does B2 bind [7]?
A: no binding

B3: V5-tagged SPLUNC1 expressed in Xenopus oocytes from injected cRNA (other, not shown: small tags and cut ends)
chain: T1 sequence
Q: With B3 as the molecule, how does the “decrease in amiloride-sensitive current relative to control oocytes” value [8] read?
A: ~70%

B4: S18 peptide (amino acids 22-39 of human SPLUNC1) (peptide)
peptide: GGLPVPLDQTLPLNVNPA
Q: How did the “IC50, dose response of ASL height in CF HBECs 8 h post-S18 addition” value [9] turn out when B4 was run?
A: 600 nM
